≈ marks a conversion by molar mass, not a printed value.
Experiments:
[1] = Hydrogel formation (gelation time, minimum gel concentration); format: physicochemical; conditions: for minimum gel concentration needed for gelation: PBS solutions at 37°C; for gelation time: room temperature, PBS pH 7.4, 2 equiv. Na2CO3
Protocol: General procedure for the formation of hydrogels: all the compounds dissolved in phosphate-buffered saline (PBS, pH 7.4). 2 equiv. of Na2CO3 (0.1 mol l^−1) were used to neutralize the carboxyl groups (─COOH) of compounds and adjust the pH to neutral. Then the hydrogels were formed at room temperature (22–25°C) or 37°C within 30 min.

[2] = In vitro drug release of AmB or Dex from hydrogels; format: physicochemical; conditions: for final drug release percentage of AmB after 12 h: 0.3 ml PBS pH 7.4 containing trypsin 1 µg ml^−1, 37°C, HPLC-UV 383 nm; for final drug release percentage of AmB after 12 h / final drug release percentage of Dex after 12 h: n = 3; for constant release rate of AmB / final drug release percentage of Dex after 12 h / constant release rate of Dex: PBS pH 7.4 with trypsin 1 µg ml^−1, 37°C; for constant release rate of AmB / constant release rate of Dex: entire measurement period (12 h); for diffusion exponent n of AmB release (Mt/M∞ = k·t^n) / rate constant k of AmB release (Mt/M∞ = k·t^n) / diffusion exponent n of Dex release (Mt/M∞ = k·t^n) / rate constant k of Dex release (Mt/M∞ = k·t^n): fit of release data, PBS pH 7.4, 37°C; for final drug release percentage of Dex after 12 h: HPLC-UV 240 nm
Protocol: The 2.0 wt%, 3.0 wt% and 4.0 wt% of Nap-AmB, Npx-AmB and Dex-AmB hydrogels within the 0.3 ml PBS solution containing trypsin (1 µg ml^−1) were prepared for drug release study. A quantity of 0.2 ml of the upper buffer solution was taken out and used to run HPLC at every 30 min and 0.2 ml of fresh PBS buffer solution containing trypsin (1 µg ml^−1) was added back each time. The experiments were conducted at 37°C. The areas of peaks in HPLC spectra were used to determine the percentage of AmB or Dex released from their corresponding hydrogels. The liquid chromatography system (Agilent 1200 series, America) comprised Degasser G1322A, Quaternary pump G1312B, Thermostated auto sampler HiP-ALS G1367C, column oven G1316A and ultraviolet detector G1314A. Separation was achieved using a SepaxGP-C18 reversed-phase column (250 mm × 4.6 mm internal diameter, 5 µm particle size) (America). The mobile phase of AmB analysis was acetonitrile-water (43 : 57, containing 0.05% TFA) at a flow-rate of 1 ml min^−1. Chromatography was carried out at 30°C and the detector wavelengths were set at 383 nm. The mobile phase of Dex analysis was acetonitrile-water (45 : 55, containing 0.05% TFA) at a flow rate of 1 ml min^−1. Chromatography was carried out at 30°C and the detector wavelengths were set at 240 nm. The experiment was conducted in three parallel experiments. […] Mt/M∞ is the fractional drug release, Mt is the amount of drug released at time t, M∞ is the maximum amount of drug released at time ∞, t is the release time, k is a rate constant of kinetic release and n is the diffusion exponent, characteristic of the drug release mechanism.

Candida albicans [3] = assay: Time-kill curves at 1 x MIC and 2 x MIC; format: cell-based; conditions: C. albicans, 28°C, n = 3; for time for which antifungal activity is exhibited in time-kill curves: sampled 0, 1, 2, 4, 6, 8, 12 and 24 h
Protocol: (§1) The minimum inhibitory concentration (MIC) of the Dex, AmB, Nap-FFDKY, Npx-FFDKY, Fmoc-FFDKY, Nap-AmB, Npx-AmB and Dex-AmB hydrogels was determined by a serial 2-fold dilution of test samples. Fourteen different concentrations of drugs and hydrogels were prepared in DMF solution. One millilitre of the fungal strain […] colony-forming unit (CFU)/tube was inoculated into each tube containing different concentrations (1 ml) of test samples and incubated at 28°C (200 rpm) for 24 h. The MIC was defined as the minimum concentration of the sample inhibiting the visible growth of the microorganism. The experiment was repeated at least three times. Based on the values of MIC, 0.1 ml of the fungal strain containing different concentrations of test samples which inhibited the visible growth of the microorganism was subcultivated on the Sabouraud's dextrose agar plates, and incubated at 28°C for 48 h. The minimum bactericidal concentration (MBC) determination was defined as the minimum concentration of the sample sterilizing the visible growth of the microorganism (lower than 5 CFU/plate). The experiment was repeated at least three times. Based on the values of MIC, the fungal strain containing 1 × MIC and 2 × MIC concentrations of test samples was incubated at 28°C. A test suspension containing 0.1 ml was taken out and used to evaluate fungus colonies at 0, 1, 2, 4, 6, 8, 12 and 24 h.

[4] = Solubility of hydrogelators in aqueous solutions; conditions: water, PBS solutions (pH = 7.4) and culture solutions
Candida albicans [5] = assay: microbe, parasite or virus in culture; format: cell-based; conditions: for MIC: 24 h; for MBC: 48 h
Protocol: as §1

## C[C@@H]1[C@H](O)[C@@H](C)/C=C/C=C/C=C/C=C/C=C/C=C/C=C/[C@H](O[C@@H]2O[C@H](C)[C@@H](O)[C@H](N)[C@@H]2O)C[C@@H]2O[C@](O)(C[C@@H](O)C[C@@H](O)[C@H](O)CC[C@@H](O)C[C@@H](O)CC(=O)O[C@H]1C)C[C@H](O)[C@H]2C(=O)NCCCC[C@H](NC(=O)[C@H](CC(=O)O)NC(=O)[C@H](Cc1ccccc1)NC(=O)[C@H](Cc1ccccc1)NC(=O)Cc1ccc2ccccc2c1)C(=O)N[C@@H](Cc1ccc(O)cc1)C(=O)O [Nap-AmB]
[1]
  minimum gel concentration needed for gelation: about 0.5 wt%
  gelation time: 3 min
[2]; 2.0 wt% hydrogel
  final drug release percentage of AmB after 12 h: 36.3%
  constant release rate of AmB: about 0.3188 mg ml^−1 per hour
  diffusion exponent n of AmB release (Mt/M∞ = k·t^n): 0.6874
  rate constant k of AmB release (Mt/M∞ = k·t^n): approximately 0.2503
[2]; 3.0 wt% hydrogel
  final drug release percentage of AmB after 12 h: 47.3%
  constant release rate of AmB: ~0.6114 mg ml^−1 per hour
  diffusion exponent n of AmB release (Mt/M∞ = k·t^n): 0.5722
  rate constant k of AmB release (Mt/M∞ = k·t^n): ~0.4662
[2]; 4.0 wt% hydrogel
  final drug release percentage of AmB after 12 h: 62.1%
  constant release rate of AmB: ~1.015 mg ml^−1 per hour
  diffusion exponent n of AmB release (Mt/M∞ = k·t^n): 0.5481
  rate constant k of AmB release (Mt/M∞ = k·t^n): ~0.6379
Candida albicans [3]
  time for which antifungal activity is exhibited in time-kill curves: 2 h
[4]
  solubility in aqueous solutions (in words): highly soluble

## COc1ccc2cc([C@H](C)C(=O)N[C@@H](Cc3ccccc3)C(=O)N[C@@H](Cc3ccccc3)C(=O)N[C@@H](CC(=O)O)C(=O)N[C@@H](CCCCNC(=O)[C@H]3[C@@H]4C[C@@H](O[C@@H]5O[C@H](C)[C@@H](O)[C@H](N)[C@@H]5O)/C=C/C=C/C=C/C=C/C=C/C=C/C=C/[C@H](C)[C@@H](O)[C@@H](C)[C@H](C)OC(=O)C[C@H](O)C[C@H](O)CC[C@@H](O)[C@H](O)C[C@H](O)C[C@](O)(C[C@@H]3O)O4)C(=O)N[C@@H](Cc3ccc(O)cc3)C(=O)O)ccc2c1 [Npx-AmB]
Candida albicans [5]
  MIC: 43.7 mg/L (≈ 23.8 µM)
  MBC: 349 mg/L (≈ 190 µM)
[1]
  minimum gel concentration needed for gelation: ~1.0 wt%
  gelation time: 10 min
[2]; 2.0 wt% hydrogel
  final drug release percentage of AmB after 12 h: 30.0%
  constant release rate of AmB: about 0.2406 mg ml^−1 per hour
  diffusion exponent n of AmB release (Mt/M∞ = k·t^n): 0.7428
  rate constant k of AmB release (Mt/M∞ = k·t^n): approximately 0.2846
[2]; 3.0 wt% hydrogel
  final drug release percentage of AmB after 12 h: 38.9%
  constant release rate of AmB: ~0.4837 mg ml^−1 per hour
  diffusion exponent n of AmB release (Mt/M∞ = k·t^n): 0.7784
  rate constant k of AmB release (Mt/M∞ = k·t^n): ~0.3358
[2]; 4.0 wt% hydrogel
  final drug release percentage of AmB after 12 h: 51.3%
  constant release rate of AmB: ~0.8332 mg ml^−1 per hour
  diffusion exponent n of AmB release (Mt/M∞ = k·t^n): 0.7771
  rate constant k of AmB release (Mt/M∞ = k·t^n): ~0.4387
Candida albicans [3]
  speed of fungistatic effect in time-kill curves (in words): exert fungistatic effect more quickly than AmB and Nap-AmB hydrogels
  time for which antifungal activity is exhibited in time-kill curves: 2 h

## C[C@@H]1[C@H](O)[C@@H](C)/C=C/C=C/C=C/C=C/C=C/C=C/C=C/[C@H](O[C@@H]2O[C@H](C)[C@@H](O)[C@H](N)[C@@H]2O)C[C@@H]2O[C@](O)(C[C@@H](O)C[C@@H](O)[C@H](O)CC[C@@H](O)C[C@@H](O)CC(=O)O[C@H]1C)C[C@H](O)[C@H]2C(=O)NCCCC[C@H](NC(=O)[C@H](CC(=O)O)NC(=O)[C@H](Cc1ccccc1)NC(=O)[C@H](Cc1ccccc1)NC(=O)CCC(=O)OCC(=O)[C@@]1(O)[C@H](C)C[C@H]2[C@@H]3CCC4=CC(=O)C=C[C@]4(C)[C@@]3(F)[C@@H](O)C[C@@]21C)C(=O)N[C@@H](Cc1ccc(O)cc1)C(=O)O [Dex-AmB]
Candida albicans [5]
  MIC: 40.1 mg/L (≈ 19.1 µM)
  MBC: 643 mg/L (≈ 306 µM)
[1]
  minimum gel concentration needed for gelation: ~2.0 wt%
  gelation time: approximately 30 min
[2]; 2.0 wt% hydrogel
  final drug release percentage of AmB after 12 h: 16.3%
  final drug release percentage of Dex after 12 h: 28.5%
  constant release rate of AmB: about 0.1123 mg ml^−1 per hour
  constant release rate of Dex: about 0.08359 mg ml^−1 per hour
  diffusion exponent n of AmB release (Mt/M∞ = k·t^n): 0.8265
  diffusion exponent n of Dex release (Mt/M∞ = k·t^n): 0.4404
  rate constant k of AmB release (Mt/M∞ = k·t^n): about 0.2283
  rate constant k of Dex release (Mt/M∞ = k·t^n): approximately 0.1211
[2]; 3.0 wt% hydrogel
  final drug release percentage of AmB after 12 h: 19.2%
  final drug release percentage of Dex after 12 h: 39.6%
  constant release rate of AmB: ~0.1994 mg ml^−1 per hour
  constant release rate of Dex: ~0.1743 mg ml^−1 per hour
  diffusion exponent n of AmB release (Mt/M∞ = k·t^n): 0.6474
  diffusion exponent n of Dex release (Mt/M∞ = k·t^n): 0.3576
  rate constant k of AmB release (Mt/M∞ = k·t^n): ~0.3669
  rate constant k of Dex release (Mt/M∞ = k·t^n): ~0.3039
[2]; 4.0 wt% hydrogel
  final drug release percentage of AmB after 12 h: 24.4%
  final drug release percentage of Dex after 12 h: 46.8%
  constant release rate of AmB: ~0.3517 mg ml^−1 per hour
  constant release rate of Dex: ~0.2867 mg ml^−1 per hour
  diffusion exponent n of AmB release (Mt/M∞ = k·t^n): 0.7971
  diffusion exponent n of Dex release (Mt/M∞ = k·t^n): 0.2587
  rate constant k of AmB release (Mt/M∞ = k·t^n): ~0.6436
  rate constant k of Dex release (Mt/M∞ = k·t^n): ~0.6024
Candida albicans [3]
  speed of fungistatic effect in time-kill curves (in words): exert fungistatic effect more quickly than AmB and Nap-AmB hydrogels
  time for which antifungal activity is exhibited in time-kill curves: 2 h
[4]
  solubility in aqueous solutions (in words): highly soluble

Reference: article PMC5882710, “Amphotericin B-conjugated polypeptide hydrogels as a novel innovative strategy for fungal infections” (Royal Society Open Science, 2018)
